{"source": "paper PMC6849348", "about": "“Theranostic Application of a Novel G-Quadruplex-Forming DNA Aptamer Targeting Malate Synthase of Mycobacterium tuberculosis” (Molecular Therapy. Nucleic Acids, 2019)"}
{"molecular_target": "malate synthase (MS, GlcB) (Mycobacterium tuberculosis) (UniProt P9WK17)", "sequence (P9WK17 whole entry)": "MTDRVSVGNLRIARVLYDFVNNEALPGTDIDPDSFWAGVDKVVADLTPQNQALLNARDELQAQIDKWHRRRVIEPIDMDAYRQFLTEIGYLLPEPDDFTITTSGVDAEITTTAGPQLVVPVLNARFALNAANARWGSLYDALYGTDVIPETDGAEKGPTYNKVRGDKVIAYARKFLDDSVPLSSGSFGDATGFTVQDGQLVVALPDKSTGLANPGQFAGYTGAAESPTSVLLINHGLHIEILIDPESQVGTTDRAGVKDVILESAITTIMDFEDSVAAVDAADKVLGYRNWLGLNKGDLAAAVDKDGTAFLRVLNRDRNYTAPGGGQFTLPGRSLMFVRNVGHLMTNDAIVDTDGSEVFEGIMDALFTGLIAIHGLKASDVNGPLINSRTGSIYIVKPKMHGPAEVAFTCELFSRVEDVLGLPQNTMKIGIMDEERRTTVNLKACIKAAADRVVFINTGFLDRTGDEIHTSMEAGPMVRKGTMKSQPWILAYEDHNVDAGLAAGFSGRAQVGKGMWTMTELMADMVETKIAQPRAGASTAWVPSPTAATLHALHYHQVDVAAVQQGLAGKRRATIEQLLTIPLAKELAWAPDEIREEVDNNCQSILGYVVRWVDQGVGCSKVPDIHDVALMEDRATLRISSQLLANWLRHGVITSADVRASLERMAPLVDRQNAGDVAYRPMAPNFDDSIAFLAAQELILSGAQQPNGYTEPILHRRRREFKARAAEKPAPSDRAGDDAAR", "assay": "SPR", "units": {"Kd": "nM"}}
{"sequence": "GCAGAGAGAGAGAAAGTGAGAAGGGCGGGGGGGAGAGGGTGGGG [MS5]", "Kd": 2700}
{"sequence": "GGACCAGGTGAGTGGATGCGGGTGCGGGTGGGGGTGAGGGGGGG [MS4]", "Kd": 9.9}
{"sequence": "GGGTTGTAAGAGGGAGCTGGGAGGGGTCGGGGGGGGGGGTGGC [MS20]", "Kd": 910}
{"sequence": "GGTGGGATGGGGGGGGGAGGGTAGGGTGTGCAAGTAGAGGGTC [MS6]", "Kd": 0.28}
